Assay [1] addresses MBP-PfAtg3 (P. falciparum 3D7) (UniProt C0H519). The assay is described as follows: pull-down.
Assay [2] shares this target. The assay is described as follows: SPR. (In SPR one partner is held on a chip, and binding of the other changes the refractive index at the surface.)
The target of assay [3] is MBP-PfAtg3 W105A (P. falciparum 3D7) (UniProt C0H519). Put plainly: pull-down.

Consider “His6-PfAtg8 with deletion of residues 68 to 76 (from UniProt Q8IJK2 1-124) (natural protein)”, for which, in assay [1], the reduction of binding against wild type is 80%. Turning to “His6-PfAtg8^CM (cysteine mutant C37I, C119S, C122S) (from UniProt Q8IJK2 1-124) (natural protein)”, in assay [2], the equilibrium dissociation constant (Kd) (as a rule, the constant that tells how readily two partners part at equilibrium) turned out to be 326 nM. For the same substance, the decrease of binding against wild type in assay [3] worked out at 35%.

(Values after paper PMC3496014.)
